Where “and” joins values, the source holds several entries; their conditions need not be identical. Equal values may be shown once.
Tests used:
[1] = biological target: MBP-InaC C-ter (Chlamydia trachomatis serovar L2 (LGV 434/Bu)); experiment: SEC + other: mass photometry + native gel or EMSA; purified MBP-tagged proteins; Superdex 200 SEC, mass photometry of SEC fractions in DPBS, native PAGE
[2] = biological target: MBP-IPAM C-ter (Chlamydia trachomatis serovar L2 (LGV 434/Bu)); experiment: as above
[3] = biological target: the molecule itself; experiment: mass photometry; fractions of MBP-CpoS C-ter from Superdex 200 SEC (13 and 14 mL); 100 nM protein added to DPBS, room temperature
[4] = biological target: the molecule itself; experiment: not stated; CpoS C-ter in acidic and basic buffer conditions (Fig. S3C)
[5] = biological target: the molecule itself; experiment: SEC + other: mass photometry + native gel or EMSA; purified MBP-tagged proteins; Superdex 200 SEC, mass photometry of SEC fractions in DPBS, native PAGE

## MBP-InaC C-ter (domain or fragment)
[1]
  stoichiometry N: 2 and 3

## MBP-IPAM C-ter (domain or fragment)
[2]
  stoichiometry N: 2 and 3

B1: MBP-CpoS C-ter (domain or fragment)
chain: RARSRRVEIERQLEVVSMQIEELEEEYKALSEVYRANLEARRAVSKYCQELEEKILDLCKRHAATICSIEEDAKQEIRHQTERFKQRLQQNQNTCSQLTAELCKLRSENKALSERLQVQASRRKK
notes: also called MBP-tagged CpoS C-ter; MBP-tagged CpoS; source: E. coli BL21 (DE3), purified (amylose resin, Superdex 200)
[3]
  stoichiometry N: 4 and 8
[4]
  stoichiometry N: 2

B2: MBP-IncA C-ter (domain or fragment)
chain: QKTANLHLYQDLQREVGSLKEINFMLSVLQKEFLHLSKEFATTSKDLSAVSQDFYSCLQGFRDNYKGFESLLDEYKNSTEEMRKLFSQEIIADLKGSVASLREEIRFLTPLAEEVRRLAHNQESLTAAIEELKTIRDSLRDEIGQLSQLSKTLTSQIALQRKESSDLCSQIRETLSSPRKSASPSTKSS
[5]
  stoichiometry N: 4

From paper PMC12707108, “CpoS-Inc interactions facilitate host cell modulation during Chlamydia trachomatis infection” (Infection and Immunity, 2025)
